Data as given in patent US7037666B2, “Methods for identifying modulators of the interaction between lap (latency associated peptide) and intergrin αvβ3 and medical use thereof” (SmithKline Beecham Corporation, priority 2000, dated 2006).
Ends that are not written are not given here.

What was measured:
Type in all cases: cell-based
αvβ3 integrin [1] = biological target: T1, αvβ3 integrin (Homo sapiens, UniProt P05106+P06756); test: Adhesion of K562-αvβ3 cells to GST-LAPβ1 (amino acids 242–252) coated wells; settings: matrix titration or 0.5 μg coated, 2 mM MgCl2
T1 construct: expressed in transfected cells; host or cells: K562
Experimental: All proteins were coated onto Maxisorp 96-well plates (Nunclon) overnight at 4° C. Each protein was diluted in PBS at the concentrations indicated, and a total volume of 100 ul added per well. Plates were washed twice in PBS then blocked with 3% BSA/PBS for 1 hour at 37° C., and finally washed twice in PBS. Cells were pelleted and washed once in HBSS (Sigma) then spread in HBSS, 25 mM HEPES pH 7.5 at the desired cell concentration (K562-WT, K562-αvβ6, HL60 at 6×10^6 cells/ml, K562-αvβ5, K562-αvβ3 at 4×10^6 cells/ml, 100 ul per well), in the presence of either 2 mM MgCl2 or 0.5 mM MnCl2 as indicated in the figure legends. […] For antibody inhibition cells were pre-incubated with the antibody (10 μg/ml) on ice for 5 minutes. Cells were then allowed to attach for 35 minutes at 37° C., washed twice with PBS, once in ethanol, and fixed in ethanol for 20 minutes at room temperature. For quantitation cells were visualised by staining with 0.1% crystal violet (Sigma) for 10 minutes then lysed in 0.5% Triton X-100 (Sigma) and read optically at 570 nm in a Wallac Victor plate reader.

K562-WT cells = test: Adhesion of K562-WT cells to LAP-β1 coated wells; settings: coated at 10 μg/ml, 0.5 mM MnCl2
Experimental: (§1) Cells were allowed to attach to wells coated with LAP-β1 at 10 μg/ml. Cells were incubated for 35 minutes at 37° C. in HBSS supplemented with 25 mM HEPES pH 7.5, and either 0.5 mM MnCl2 (K562-WT, HL60, K562-αvβ6) or 2 mM MgCl2 (K562-αvβ3, K562-αvβ5). Each bar represents the mean±SD of duplicated points.
(§2) K562-WT (wild-type), K562-αvβ6, K562-αvβ5, K562-αvβ3, and HL60 cells were maintained in 1:1 RPMI 1640, Hepes modification (Gibco): Dulbecco's Minimum Essential Medium (DMEM), Hepes modification (Sigma) supplemented with L-glutamine (Gibco) and 10% fetal calf serum (FCS). In addition K562-αvβ3, K562-αvβ5, and K562-αvβ6 cells were supplemented with geneticin (G418, Gibco) at 1 mg/ml. All transfected cells were generated by transfecting K562 cells with pCDNA-3 constructs containing individual integrin cDNAs, using lipofectamine plus (Gibco BRL).
(§3) All proteins were coated onto Maxisorp 96-well plates (Nunclon) overnight at 4° C. Each protein was diluted in PBS at the concentrations indicated, and a total volume of 100 ul added per well. Plates were washed twice in PBS then blocked with 3% BSA/PBS for 1 hour at 37° C., and finally washed twice in PBS. […] For quantitation cells were visualised by staining with 0.1% crystal violet (Sigma) for 10 minutes then lysed in 0.5% Triton X-100 (Sigma) and read optically at 570 nm in a Wallac Victor plate reader.

HL60 cells = test: Adhesion of HL60 cells to LAP-β1 coated wells; settings: coated at 10 μg/ml, 0.5 mM MnCl2
Experimental: as §1, §2, §3

αvβ5 integrin = biological target: T2, αvβ5 integrin (Homo sapiens, UniProt P06756+P18084); test: Adhesion of K562-αvβ5 cells to LAP-β1 coated wells; settings: coated at 10 μg/ml, 2 mM MgCl2
T2 construct: expressed in transfected cells; host or cells: K562
Experimental: as §1, §2, §3

αvβ6 integrin = biological target: T3, αvβ6 integrin (Homo sapiens, UniProt P06756+P18564); test: Adhesion of K562-αvβ6 cells to LAP-β1 coated wells; settings: coated at 10 μg/ml, 0.5 mM MnCl2
T3 construct: expressed in transfected cells; host or cells: K562
Experimental: as §1
Cells were allowed to attach to wells coated with LAP-β1 at 10 μg/ml. Cells were incubated for 5 minutes on ice, then for 35 minutes at 37° C., in the presence of antibodies at 10 μg/ml as indicated. The buffer used was HBSS supplemented with 25 mM HEPES pH 7.5, and 2 mM MgCl2. Each bar represents the mean±SD of duplicated samples.
as §2, with “All transfected cells were generated by transfecting K562 cells with pCDNA-3 constructs containing individual integrin cDNAs, using lipofectamine plus (Gibco BRL).” left out
All proteins were coated onto Maxisorp 96-well plates (Nunclon) overnight at 4° C. […] For quantitation cells were visualised by staining with 0.1% crystal violet (Sigma) for 10 minutes then lysed in 0.5% Triton X-100 (Sigma) and read optically at 570 nm in a Wallac Victor plate reader.

αvβ3 integrin [2] = biological target: T1, αvβ3 integrin; test: Adhesion of K562-αvβ3 cells to LAP-β1 coated wells; settings: coated at 10 μg/ml, 2 mM MgCl2
Experimental: Cells were allowed to attach to wells coated with quantities of LAP-β1 indicated. […] The buffer used was HBSS supplemented with 25 mM HEPES pH 7.5, and 2 mM MgCl2. Each data point represents the mean±SD of duplicated samples.
The buffer used was HBSS supplemented with 25 mM HEPES pH 7.5, and 2 mM MgCl2. Adhesion to each ligand in the absence of compound was taken as a 100% binding value, with adhesion to BSA alone as a 0% binding value. The 100% binding values corresponded to the following absorbances at 570 nm: Fibrinogen=0.8, Vitronectin=0.9, LAP-β1=0.9. Each data point represents the mean±SD of duplicated samples. […]

T1 sequence (P06756 31-889 limits assumed): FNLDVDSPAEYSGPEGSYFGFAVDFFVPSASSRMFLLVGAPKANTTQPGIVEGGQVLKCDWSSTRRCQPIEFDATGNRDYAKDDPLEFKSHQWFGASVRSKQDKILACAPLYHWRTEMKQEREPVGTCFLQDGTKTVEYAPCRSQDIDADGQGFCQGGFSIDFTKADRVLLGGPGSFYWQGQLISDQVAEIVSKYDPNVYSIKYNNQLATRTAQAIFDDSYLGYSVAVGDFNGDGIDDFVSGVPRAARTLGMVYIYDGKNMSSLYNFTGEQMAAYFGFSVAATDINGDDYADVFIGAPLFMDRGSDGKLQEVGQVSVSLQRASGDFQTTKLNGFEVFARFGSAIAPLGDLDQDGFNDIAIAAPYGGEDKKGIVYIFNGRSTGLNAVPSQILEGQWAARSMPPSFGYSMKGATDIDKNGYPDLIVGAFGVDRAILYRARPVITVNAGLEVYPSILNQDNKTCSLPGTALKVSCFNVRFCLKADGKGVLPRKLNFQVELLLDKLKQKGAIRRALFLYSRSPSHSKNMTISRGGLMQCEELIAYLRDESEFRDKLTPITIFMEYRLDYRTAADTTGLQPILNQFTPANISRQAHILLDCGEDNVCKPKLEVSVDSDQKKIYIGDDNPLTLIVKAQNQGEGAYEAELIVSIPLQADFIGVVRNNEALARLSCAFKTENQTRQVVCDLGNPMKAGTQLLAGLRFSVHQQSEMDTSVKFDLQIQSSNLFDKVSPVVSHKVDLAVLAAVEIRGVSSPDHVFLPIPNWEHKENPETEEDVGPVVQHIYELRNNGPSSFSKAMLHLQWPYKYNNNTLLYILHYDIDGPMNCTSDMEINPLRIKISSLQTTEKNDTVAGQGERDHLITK
T1 sequence (P06756 891-1048 partner limits assumed): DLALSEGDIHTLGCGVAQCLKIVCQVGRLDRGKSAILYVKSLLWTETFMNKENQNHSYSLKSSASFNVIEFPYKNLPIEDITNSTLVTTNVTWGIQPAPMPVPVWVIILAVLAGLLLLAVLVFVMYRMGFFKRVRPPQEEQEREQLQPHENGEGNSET
T1 sequence (P05106 27-788): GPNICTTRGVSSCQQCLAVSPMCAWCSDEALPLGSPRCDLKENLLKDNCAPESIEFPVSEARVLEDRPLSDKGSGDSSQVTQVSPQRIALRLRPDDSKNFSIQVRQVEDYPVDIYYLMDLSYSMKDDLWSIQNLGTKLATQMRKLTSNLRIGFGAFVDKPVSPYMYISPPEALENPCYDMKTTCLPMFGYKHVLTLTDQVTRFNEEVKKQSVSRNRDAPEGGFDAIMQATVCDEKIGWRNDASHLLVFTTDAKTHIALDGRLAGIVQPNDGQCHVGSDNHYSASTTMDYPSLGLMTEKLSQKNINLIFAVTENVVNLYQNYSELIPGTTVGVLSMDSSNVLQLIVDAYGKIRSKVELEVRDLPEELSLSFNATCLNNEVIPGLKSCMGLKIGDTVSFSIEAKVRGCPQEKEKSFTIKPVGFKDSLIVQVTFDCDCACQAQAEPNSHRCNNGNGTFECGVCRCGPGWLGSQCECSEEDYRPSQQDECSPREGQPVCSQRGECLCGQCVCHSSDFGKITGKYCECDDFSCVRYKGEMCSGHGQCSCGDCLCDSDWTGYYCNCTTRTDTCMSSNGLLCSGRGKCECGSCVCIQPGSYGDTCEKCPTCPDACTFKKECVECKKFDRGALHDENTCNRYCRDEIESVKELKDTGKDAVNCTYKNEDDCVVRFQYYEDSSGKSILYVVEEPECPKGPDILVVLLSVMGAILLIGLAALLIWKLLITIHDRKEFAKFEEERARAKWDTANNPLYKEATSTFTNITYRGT
T3 sequence (P06756 31-889 limits assumed): as the sequence (P06756 31-889 limits assumed) above
T3 sequence (P06756 891-1048 partner limits assumed): as the sequence (P06756 891-1048 partner limits assumed) above
T3 sequence (P18564 22-788): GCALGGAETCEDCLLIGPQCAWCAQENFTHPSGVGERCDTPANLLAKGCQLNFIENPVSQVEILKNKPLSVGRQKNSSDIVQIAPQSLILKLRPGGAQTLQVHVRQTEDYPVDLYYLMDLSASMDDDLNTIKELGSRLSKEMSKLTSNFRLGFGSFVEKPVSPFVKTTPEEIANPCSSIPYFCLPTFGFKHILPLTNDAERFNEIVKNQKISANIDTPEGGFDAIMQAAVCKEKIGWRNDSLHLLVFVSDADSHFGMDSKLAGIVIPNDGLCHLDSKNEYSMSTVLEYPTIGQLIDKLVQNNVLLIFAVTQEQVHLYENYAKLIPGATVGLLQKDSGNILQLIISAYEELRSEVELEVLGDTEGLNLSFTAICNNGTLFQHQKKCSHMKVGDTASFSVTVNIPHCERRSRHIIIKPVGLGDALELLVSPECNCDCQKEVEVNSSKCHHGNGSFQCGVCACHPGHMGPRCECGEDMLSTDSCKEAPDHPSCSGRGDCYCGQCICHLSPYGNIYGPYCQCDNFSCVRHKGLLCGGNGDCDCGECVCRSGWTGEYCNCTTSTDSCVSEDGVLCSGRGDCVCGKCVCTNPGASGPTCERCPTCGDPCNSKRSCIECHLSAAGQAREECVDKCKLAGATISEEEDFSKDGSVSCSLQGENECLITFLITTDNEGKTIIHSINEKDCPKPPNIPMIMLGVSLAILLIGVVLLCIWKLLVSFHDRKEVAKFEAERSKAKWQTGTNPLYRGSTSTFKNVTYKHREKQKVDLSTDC
T2 sequence (P06756 31-889 limits assumed): as the sequence (P06756 31-889 limits assumed) above
T2 sequence (P06756 891-1048 partner limits assumed): as the sequence (P06756 891-1048 partner limits assumed) above
T2 sequence (P18084 24-799): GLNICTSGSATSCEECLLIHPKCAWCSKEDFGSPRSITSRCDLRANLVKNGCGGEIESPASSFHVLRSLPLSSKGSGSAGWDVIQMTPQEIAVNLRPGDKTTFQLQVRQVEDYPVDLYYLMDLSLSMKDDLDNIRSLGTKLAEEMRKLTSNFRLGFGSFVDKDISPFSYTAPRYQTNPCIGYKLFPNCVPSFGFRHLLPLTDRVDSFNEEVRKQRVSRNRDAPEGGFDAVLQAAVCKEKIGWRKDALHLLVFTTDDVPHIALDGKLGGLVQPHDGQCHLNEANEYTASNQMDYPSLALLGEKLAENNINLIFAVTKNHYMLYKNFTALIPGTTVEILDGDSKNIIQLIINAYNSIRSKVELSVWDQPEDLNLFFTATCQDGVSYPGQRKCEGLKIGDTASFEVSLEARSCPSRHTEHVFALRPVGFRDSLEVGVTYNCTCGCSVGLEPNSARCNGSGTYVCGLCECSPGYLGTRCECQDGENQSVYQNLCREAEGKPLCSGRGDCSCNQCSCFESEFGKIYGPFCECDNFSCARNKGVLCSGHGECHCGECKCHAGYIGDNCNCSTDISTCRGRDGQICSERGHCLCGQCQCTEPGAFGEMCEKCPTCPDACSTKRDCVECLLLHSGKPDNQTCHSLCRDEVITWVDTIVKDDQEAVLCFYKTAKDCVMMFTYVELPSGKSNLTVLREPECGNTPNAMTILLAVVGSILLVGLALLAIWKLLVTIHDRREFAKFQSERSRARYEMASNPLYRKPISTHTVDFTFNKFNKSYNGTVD

| Adhesion of K562-αvβ5 cells to the coated protein (αvβ5 integrin) | Adhesion of K562-αvβ6 cells to the coated protein (αvβ6 integrin) | Adhesion of K562-αvβ3 cells to the coated protein (αvβ3 integrin [2]) | Substance | Ability to support adhesion of K562-αvβ3 cells (αvβ3 integrin [1]) | Adhesion of K562-WT cells to the coated protein (K562-WT cells) | Adhesion of HL60 cells to the coated protein (HL60 cells) |
| --- | --- | --- | --- | --- | --- | --- |
| – | – | – | GST-LAPβ1 (aa242–252): peptide fragment of LAPβ1 (amino acids 242–252, GRRGDLATIHG) containing the RGD motif, expressed as a GST fusion protein in E. coli ({GST}-GRRGDLATIHG; UniProt P01137 242-252, looked up, fragment) | supported adhesion of K562-αvβ3 cells similarly to intact LAPβ1 | – | – |
| bound slightly | adhered | interacted strongly | LAP-β1: latency associated peptide-β1 of TGF-β1, amino acids 30 to 278 of SEQ ID NO: 1, obtained from Sigma | – | bound slightly | failed to bind |
